Source: patent publication US20110179509A1, “Use of Afamin for Treating Fertility Disorders” (VITATEQ BIOTECHNOLOGY GMBH, priority 2008, published 2011)
“Also recorded” adds a separate entry of the source.

B1: recombinantly produced murine afamin: murine afamin expressed by stable transfection of CHO cells with mouse afamin cDNA, purified from serum-free culture supernatants (protein, UniProt O89020 22-608, looked up)
Afamin: LPTKPQDVDHFNATQKFIDENTTYLAIIAFSQYVQEASFDEVETLVKVMLDYRDRCWADNTLPECSKTANDAIQDMLCDMEGLPQKHNFSHCCGKAGFPRRLCFFYNKKANVGFLPPFPTLDPEEKCQAYKNNSESFLHLYMYEVARRNPFVFAPVLLAVAAWFEEAATTCCEQQQKATCFQAKAAPITQYLKASSSYQRNVCGALIKFGPKVLNSINVAVFSKKFPKIGFKDLTTLLEDVSSMYEGCCEGDVVHCIRSQSQVVNHICSKQDSISSKIKVCCEKKTLEREACIINANKDDRPEGLSLREAKFTESENVCQERDSDPDKFFAEFIYEYSRRHPDLSTPELLRITKVYMDFLEDCCSRENPAGCYRHVEDKFNETTQRSLAMVQQECKQFQELGKDTLQRHFLVKFTKAAPQLPMEELVSLSKEMVAALTTCCTLSDEFACVDNLADLVLGELCGVNTNRTINPAVDHCCKTDFAFRRHCFEHLKADTTYELPSVSALVSALHTDWCQPRKEDLQNKKHRFLVNLVKWMPGITDEEWLCLFTKFTAAREECSEVQEPESCFSPESSKTGDESQATEKQR
B2: afamin: 75-kDa human serum glycoprotein with vitamin E-binding properties, member of the albumin gene family (protein, UniProt P43652 22-599, looked up)
Afamin: LPTQPRDIENFNSTQKFIEDNIEYITIIAFAQYVQEATFEEMEKLVKDMVEYKDRCMADKTLPECSKLPNNVLQEKICAMEGLPQKHNFSHCCSKVDAQRRLCFFYNKKSDVGFLPPFPTLDPEEKCQAYESNRESLLNHFLYEVARRNPFVFAPTLLTVAVHFEEVAKSCCEEQNKVNCLQTRAIPVTQYLKAFSSYQKHVCGALLKFGTKVVHFIYIAILSQKFPKIEFKELISLVEDVSSNYDGCCEGDVVQCIRDTSKVMNHICSKQDSISSKIKECCEKKIPERGQCIINSNKDDRPKDLSLREGKFTDSENVCQERDADPDTFFAKFTFEYSRRHPDLSIPELLRIVQIYKDLLRNCCNTENPPGCYRYAEDKFNETTEKSLKMVQQECKHFQNLGKDGLKYHYLIRLTKIAPQLSTEELVSLGEKMVTAFTTCCTLSEEFACVDNLADLVFGELCGVNENRTINPAVDHCCKTNFAFRRPCFESLKADKTYVPPPFSQDLFTFHADMCQSQNEELQRKTDRFLVNLVKLKHELTDEELQSLFTNFANVVDKCCKAESPEVCFNEESPKIGN

Key:
[1] = system: infertile male chimeric animals; assay: afamin substitution via intraperitoneal minipump in infertile male chimeric afamin knock-out mice: fertility and testes histology; type: in vivo, mouse
Description: Chimeric mice from ES cells carrying the disrupted afamin allele were generated by microinjection of 10-15 ES cells into 3.5-day-old embryos of the C57B1/J mouse strain. Chimeric animals were mated to C57B1/J or 129/Sv partners, respectively, to establish the afamin mutant allele on a C57B1/J×129/Sv hybrid and on a 129/Sv inbred genetic background. Loss of afamin mRNA and protein was checked by Northern and Western blot analysis.
In order to confirm the role of afamin for fertility, infertile male chimeric animals were substituted with recombinantly produced murine afamin via minipump, which was implanted intraperitonially and released afamin continuously into the organism for 28 days (which corresponds to the time required for spermiogenesis in mice). Control mice received physiological saline solution instead of afamin. At weekly time intervals, plasma was obtained from substituted mice. […] Offspring were, however, exclusively wild-type not carrying the recombinant allele.

[2] = afamin plasma concentration by ELISA during afamin substitution; type: in vivo, mouse; settings: infertile male chimeric mice, intraperitoneal minipump, continuous release for 28 days, plasma at weekly intervals
Description: In order to analyse the afamin concentrations in the partial knock-out mice, an ELISA kit for quantifying afamin in mouse plasma was developed. For that purpose, a polyclonal antibody against mouse afamin was obtained by immunising rabbits with purified recombinant murine afamin. Recombinant expression of murine afamin was achieved by stable transfection of CHO cells with mouse afamin cDNA followed by purification from serum-free culture supernatants. The obtained polyclonal anti-mouse afamin antibody was purified by affinity chromatography on a sepharose column to which recombinant afamin was covalently bound. This affinity-purified antibody was used to coat ELISA-plates and, after conjugation with horse-radish peroxidase, also for detection using an appropriate substrate reaction. Purified recombinant afamin (quantified by amino acid compositional analysis) served as standard. With this ELISA, an afamin plasma concentration in the range of 6-10 mg/l was measured in wild-type mice which is roughly only 10% of respective plasma levels in humans (3).
In order to confirm the role of afamin for fertility, infertile male chimeric animals were substituted with recombinantly produced murine afamin via minipump, which was implanted intraperitonially and released afamin continuously into the organism for 28 days (which corresponds to the time required for spermiogenesis in mice). […]

[3] = human afamin binding alpha- and gamma-tocopherol, radioligand assay; read-out: binding-dissociation constant; cited from earlier work

Row | Molecule | histological examination of testes, spermiogenesis ([1]; after afamin substitution and sacrifice) | fertility (mating with female wild-type mice) ([1]; intraperitoneal minipump, 28 days substitution) | plasma concentrations of afamin [2] | Kd [3]
1 | B1 | restoration of normal testes histology, spermiogenesis; also recorded: completely normalised testes tissue and spermiogenesis | restoration of normal testes histology, spermiogenesis and fertility; also recorded: resulted in several pregnancies and births | immediately rose to physiological levels and stayed constant during the infusion period | 
2 | B2 |  |  |  | 18 µM
